Laboratory results taken from patent US20240376185A1 (SMIVET B V, published 2024).

Experiments:
[1] = target: T1, tetanus neurotoxin (TeNT), authentic tetanus holotoxin (Clostridium tetani, UniProt P04958 2-1315); experiment: BLI (Octet Red96): biotinylated SDA on SA sensor, TeNT as analyte
Target sequence in this assay (P04958 2-457 limits assumed): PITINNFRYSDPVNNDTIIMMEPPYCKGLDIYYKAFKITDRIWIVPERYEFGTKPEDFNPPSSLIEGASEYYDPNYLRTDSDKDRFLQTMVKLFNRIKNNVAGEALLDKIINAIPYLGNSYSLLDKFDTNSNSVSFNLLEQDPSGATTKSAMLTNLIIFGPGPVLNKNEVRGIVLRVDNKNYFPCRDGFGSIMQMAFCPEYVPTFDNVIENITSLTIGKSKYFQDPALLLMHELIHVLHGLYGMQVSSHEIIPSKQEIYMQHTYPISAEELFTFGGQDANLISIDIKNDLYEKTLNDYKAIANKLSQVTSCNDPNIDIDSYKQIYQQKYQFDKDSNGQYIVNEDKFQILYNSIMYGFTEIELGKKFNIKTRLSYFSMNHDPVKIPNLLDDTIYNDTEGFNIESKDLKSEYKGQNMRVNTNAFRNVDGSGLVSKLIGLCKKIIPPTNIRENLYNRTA

[2] = target: T1, tetanus neurotoxin (TeNT), authentic …; experiment: bridging ELISA: coated TeNT, SDA, biotinylated TeNT, StrepPO (bivalent binding)
[3] = target: T1, tetanus neurotoxin (TeNT), authentic …; experiment: GT1b-TeNT inhibition ELISA
Target sequence in this assay (P04958 2-457 limits assumed, chain 1 of 2): as the sequence (P04958 2-457 limits assumed) above
Target sequence in this assay (P04958 458-1315 limits assumed, chain 2 of 2): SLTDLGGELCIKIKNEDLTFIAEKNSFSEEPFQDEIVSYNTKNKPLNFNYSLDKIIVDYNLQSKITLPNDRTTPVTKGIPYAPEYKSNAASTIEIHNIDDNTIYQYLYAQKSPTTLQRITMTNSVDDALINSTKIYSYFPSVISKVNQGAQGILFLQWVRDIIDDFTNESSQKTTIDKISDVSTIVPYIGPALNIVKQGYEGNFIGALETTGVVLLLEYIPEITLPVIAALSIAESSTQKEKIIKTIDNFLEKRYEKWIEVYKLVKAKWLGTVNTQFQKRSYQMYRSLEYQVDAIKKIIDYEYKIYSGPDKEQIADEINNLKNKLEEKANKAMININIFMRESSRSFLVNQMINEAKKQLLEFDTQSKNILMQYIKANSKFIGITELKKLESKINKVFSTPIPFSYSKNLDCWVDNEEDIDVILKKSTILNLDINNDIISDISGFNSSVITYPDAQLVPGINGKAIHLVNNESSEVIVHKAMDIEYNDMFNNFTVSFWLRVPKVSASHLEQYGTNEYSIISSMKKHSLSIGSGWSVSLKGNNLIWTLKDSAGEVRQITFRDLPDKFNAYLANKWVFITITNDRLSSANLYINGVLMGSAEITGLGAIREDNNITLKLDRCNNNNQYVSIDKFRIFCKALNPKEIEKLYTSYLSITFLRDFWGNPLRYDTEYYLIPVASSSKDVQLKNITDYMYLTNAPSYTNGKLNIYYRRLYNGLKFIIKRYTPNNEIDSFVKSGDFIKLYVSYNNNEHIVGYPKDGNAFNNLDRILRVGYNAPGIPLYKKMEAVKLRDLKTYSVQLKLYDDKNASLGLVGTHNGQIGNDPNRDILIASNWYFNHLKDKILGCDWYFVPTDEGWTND

[4] = target: T1, tetanus neurotoxin (TeNT), authentic …; experiment: GT1b-TeNT inhibition ELISA; remark: listed apart in the source
Target sequence in this assay (P04958 2-457 limits assumed, chain 1 of 2): as the sequence (P04958 2-457 limits assumed) above
Target sequence in this assay (P04958 458-1315 limits assumed, chain 2 of 2): as the sequence (P04958 458-1315 limits assumed, chain 2 of 2) above

[5] = target: T1, tetanus neurotoxin (TeNT), authentic …; experiment: ELISA: directly coated TeNT, anti-his6 PO
Target sequence in this assay (P04958 2-457 limits assumed, chain 1 of 2): as the sequence (P04958 2-457 limits assumed) above
Target sequence in this assay (P04958 458-1315 limits assumed, chain 2 of 2): as the sequence (P04958 458-1315 limits assumed, chain 2 of 2) above

[6] = target: T1, tetanus neurotoxin (TeNT), authentic …; experiment: bridging ELISA: coated TeNT, SDA, biotinylated TeNT, StrepPO (bivalent binding); remark: listed apart in the source
Target sequence in this assay (P04958 2-457 limits assumed, chain 1 of 2): as the sequence (P04958 2-457 limits assumed) above
Target sequence in this assay (P04958 458-1315 limits assumed, chain 2 of 2): as the sequence (P04958 458-1315 limits assumed, chain 2 of 2) above

[7] = target: T1, tetanus neurotoxin (TeNT), authentic …; experiment: ELISA: directly coated TeNT, goat anti-llama Ig PO
Target sequence in this assay (P04958 2-457 limits assumed, chain 1 of 2): as the sequence (P04958 2-457 limits assumed) above
Target sequence in this assay (P04958 458-1315 limits assumed, chain 2 of 2): as the sequence (P04958 458-1315 limits assumed, chain 2 of 2) above

[8] = target: T1, tetanus neurotoxin (TeNT), authentic …; experiment: ELISA: directly coated TeNT, anti-his6 PO; remark: listed apart in the source
[9] = target: T1, tetanus neurotoxin (TeNT), authentic …; experiment: ELISA: directly coated TeNT, goat anti-llama Ig PO; remark: listed apart in the source
Target sequence in this assay (P04958 2-457 limits assumed, chain 1 of 2): as the sequence (P04958 2-457 limits assumed) above
Target sequence in this assay (P04958 458-1315 limits assumed, chain 2 of 2): as the sequence (P04958 458-1315 limits assumed, chain 2 of 2) above

[10] = target: dog IgG (chrompure dog IgG) (dog)
[11] = target: Tetanus neurotoxin (TeNT), authentic tetanus holotoxin (Clostridium tetani, UniProt P04958 2-1315)
Sequence of Tetanus neurotoxin (TeNT), authentic tetanus holotoxin (P04958 2-457 limits assumed): as the sequence (P04958 2-457 limits assumed) above

[12] = target: T2, tetanus neurotoxin (TeNT), authentic tetanus holotoxin (Clostridium tetani, UniProt P04958 2-1315); experiment: competition ELISA on TeNT, binder biotinylated; competitor SVT15L-3FW4M
[13] = target: T2, tetanus neurotoxin (TeNT), authentic …; experiment: competition ELISA on TeNT, binder biotinylated; competitor mAb 6E7
[14] = target: T2, tetanus neurotoxin (TeNT), authentic …; experiment: ELISA, TeNT captured with cAb-TT2, unlabelled binder
[15] = target: T2, tetanus neurotoxin (TeNT), authentic …; experiment: competition ELISA on TeNT, binder biotinylated; competitor SVT08L
[16] = target: T2, tetanus neurotoxin (TeNT), authentic …; experiment: competition ELISA on TeNT, binder biotinylated; competitor SVT22L
[17] = target: T2, tetanus neurotoxin (TeNT), authentic …; experiment: competition ELISA on TeNT, binder biotinylated; competitor SVT13L
[18] = target: T3, recombinant tetanus toxin fragment C (rTTC) (Clostridium tetani, UniProt P04958 865-1315); experiment: ELISA, directly coated rTTC, unlabelled binder
T3 sequence: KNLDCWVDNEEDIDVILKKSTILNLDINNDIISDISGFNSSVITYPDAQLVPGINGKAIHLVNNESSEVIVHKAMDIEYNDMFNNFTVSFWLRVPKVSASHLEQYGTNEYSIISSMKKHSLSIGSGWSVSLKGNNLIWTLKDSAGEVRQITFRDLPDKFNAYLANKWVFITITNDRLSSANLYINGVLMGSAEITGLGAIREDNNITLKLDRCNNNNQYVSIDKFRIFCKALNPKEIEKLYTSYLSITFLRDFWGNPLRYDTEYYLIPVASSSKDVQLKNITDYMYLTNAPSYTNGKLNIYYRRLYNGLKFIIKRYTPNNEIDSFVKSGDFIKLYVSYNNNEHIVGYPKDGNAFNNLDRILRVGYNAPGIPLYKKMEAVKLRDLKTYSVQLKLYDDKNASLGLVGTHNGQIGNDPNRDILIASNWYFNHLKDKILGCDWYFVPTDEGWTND

[19] = target: T2, tetanus neurotoxin (TeNT), authentic …; experiment: competition ELISA on TeNT, binder biotinylated; competitor SVT03L
[20] = target: T2, tetanus neurotoxin (TeNT), authentic …; experiment: competition ELISA on TeNT, binder biotinylated; competitor mAb 6F57
[21] = target: T2, tetanus neurotoxin (TeNT), authentic …; experiment: GT1b-TeNT inhibition ELISA, unlabelled binder
[22] = target: T2, tetanus neurotoxin (TeNT), authentic …; experiment: GT1b-TeNT inhibition ELISA, EC at A450 0.59
[23] = target: T2, tetanus neurotoxin (TeNT), authentic …; experiment: ELISA, directly coated TeNT, unlabelled binder
[24] = target: T2, tetanus neurotoxin (TeNT), authentic …; experiment: competition ELISA on TeNT, binder biotinylated; competitor SVT34L
[25] = target: T2, tetanus neurotoxin (TeNT), authentic …; experiment: competition ELISA on TeNT, binder biotinylated; competitor SVT15L
[26] = target: T2, tetanus neurotoxin (TeNT), authentic …; experiment: competition ELISA on TeNT, binder biotinylated; competitor SVT06L
[27] = target: T2, tetanus neurotoxin (TeNT), authentic …; experiment: competition ELISA on TeNT, binder biotinylated; competitor mAb 11n185
[28] = target: T2, tetanus neurotoxin (TeNT), authentic …; experiment: competition ELISA on TeNT, binder biotinylated; competitor SVT02L
[29] = target: T2, tetanus neurotoxin (TeNT), authentic …; experiment: competition ELISA on TeNT, binder biotinylated; competitor SVT16L
[30] = target: T2, tetanus neurotoxin (TeNT), authentic …; experiment: competition ELISA on TeNT, binder biotinylated; competitor mAb 14F5
[31] = target: T2, tetanus neurotoxin (TeNT), authentic …; experiment: ELISA, TeNT captured with cAb-TT2, biotinylated binder
[32] = target: T2, tetanus neurotoxin (TeNT), authentic …; experiment: ELISA, directly coated TeNT, biotinylated binder

B1: SVT15L (VHH)
VHH: QVQLQESGGGLVQTGGSLRLSCRASGRAFANYHFGWFRQAPGKDREFVASISWKGGSTYYANFALGRFTSSVDRAESSVYLQMSGLTPEDTATYYCAAHDGGDWNYHTGMDYWGKGILVTVSS
In the case of B1, the Kd [1] is reported as 413 pM, the koff [1] is reported as 3.87e-05 s⁻¹ and the kon [1] is reported as 93600 M⁻¹ s⁻¹.

B2: SVT06L (VHH)
VHH: QVQLQESGGGSVQAGGSLRLSCTASELSYDDYTIAWFRRAAGEGRVEDGEGVASITKSYDRAYDNKINYGHSVKGRFTISRDNAKNTVYLQMTDLLPSDTAVYYCALDITPPGGVGASLTEGFLFDYWGQGTQVTVSS
With B2 the “Effective SDA Concentration at A450 0.3” value [2] was 64 ng/mL, the “Effective SDA Concentration at A450 0.56” value [3] was 33 ng/mL and the “minimal absorbance value (GT1b-TeNT inhibition)” value [4] was 0.27 A450. It also gave a maximal absorbance value [5] of 1.44 A450, a maximal absorbance value [6] of 0.35 A450 and a Kd [1] of 535 pM. For the same binder, the koff [1] was 6.27e-05 s⁻¹, the kon [1] was 117000 M⁻¹ s⁻¹ and the maximal absorbance value [7] was 0.32 A450. For the same binder, the “Effective SDA Concentration at A450 0.15” value [8] was 4.9 ng/mL and the “Effective SDA Concentration at A450 0.15” value [9] was 14 ng/mL.

B3: SVT02-GS2-SVG06M4-H6 (bispecific antibody)
chain: QVQLQQSGGGSVQAGGSLRLSCVGPQRTFSTYGMGWFRQAPGKEREFVAGINYKGDTTYYADSVKGRFTISRDNAKNTLYLQMDSLKPEDRAVYQCARKGGLGGDYRDAGQYRYWGQGTQVTVSSGGGGSGGGSEVQLVESGGALVQPGGSLRLSCAASGFPFSAYDMTWVRQAPGQGLEWVSTIHKSGGITTYADSVKGRFTISRDNAKNTLYLQMNNLESEDTAVYYCAKALRAHNSDYVGRNALGSWGQGTQVTVSSHHHHHH
B3 gave a maximal absorbance value [10] of 0.06 A450.

B4: SVT03L (VHH)
VHH: QVQLQQSGGGSVQTGDSLTLSCTASGGSLNSYFVGWFRQSGGKEREFVSVIARTGRSTSYADSVKGRFTISRDNAANTVFLTMNNLRPDDTAIYYCAAVGRPGVLHLTQSYDYWGQGTQVTVSS
Work on B4 yielded a Kd [11] of 1.4 pM, a koff [11] of 6.64e-06 s⁻¹ and a kon [11] of 4.62e+06 M⁻¹ s⁻¹.

B5: SVT22L (VHH)
VHH: QVQLQESGGGLVQAGESLRLSCTASGISFDDYAIGWFRQAPGQQRKGVACISKADGRTDYLGSVKGRFTLSTDNTKNTVHLQMNNLKPEDTALYTCAAEYKSCGMGYKPIDYWGQGMQVTVSS
For B5, the “% inhibition of binding” value [12] was 11%, the “% inhibition of binding” value [13] was 8% and the “EC resulting in A450 0.15” value [14] was 5.4 ng/mL. The “maximal absorbance at 450 nm” value [14] was 0.318, the “% inhibition of binding” value [15] was 1% and the “% inhibition of binding” value [16] was 94%. For the same binder, the “% inhibition of binding” value [17] was 95%, the “maximal absorbance at 450 nm” value [18] was 0.981 and the “% inhibition of binding” value [19] was 5%. For the same binder, the “% inhibition of binding” value [20] was 10%, the “minimal absorbance at 450 nm” value [21] was 0.107 and the “concentration giving A450 of 0.59” value [22] was 0.105 µg/mL. The “EC resulting in A450 0.2” value [23] was 2 ng/mL, the “maximal absorbance at 450 nm” value [23] was 1.59 and the “% inhibition of binding” value [24] was 93%. The “% inhibition of binding” value [25] was 2%, the “% inhibition of binding” value [26] was 6% and the “% inhibition of binding” value [27] was 3%. For the same binder, the “% inhibition of binding” value [28] was 4%, the “% inhibition of binding” value [29] was 92% and the “% inhibition of binding” value [30] was 0%. For the same binder, the “EC resulting in A450 0.2” value [31] was 2.6 ng/mL, the “maximal absorbance at 450 nm” value [31] was 0.799 and the “EC resulting in A450 0.4” value [32] was 1.3 ng/mL. The “maximal absorbance at 450 nm” value [32] was 1.34.

B6: SVT34L (VHH)
VHH: QVQLQESGGGLVQPGGSLRLSCAASGRTISSYAMGWFRQAPGKQREFVAAISRSGGNTYYTDSVKGRFIISRDNAKNTLYLQMNNLKPEETAVYYCAADPNLMYESKWKYRALEAWGQGTLVTVSS
In the case of B6, the “% inhibition of binding” value [12] is reported as 14%, the “% inhibition of binding” value [13] is reported as 10% and the “EC resulting in A450 0.15” value [14] is reported as 3.2 ng/mL. The “maximal absorbance at 450 nm” value [14] was 0.335, the “% inhibition of binding” value [15] was -4% and the “% inhibition of binding” value [16] was 94%. For the same binder, the “% inhibition of binding” value [17] was 93%, the “maximal absorbance at 450 nm” value [18] was 0.886 and the “% inhibition of binding” value [19] was 0%. The “% inhibition of binding” value [20] was 13%, the “minimal absorbance at 450 nm” value [21] was 0.103 and the “concentration giving A450 of 0.59” value [22] was 0.046 µg/mL. The “EC resulting in A450 0.2” value [23] was 1 ng/mL, the “maximal absorbance at 450 nm” value [23] was 1.54 and the “% inhibition of binding” value [24] was 95%. For the same binder, the “% inhibition of binding” value [25] was 3%, the “% inhibition of binding” value [26] was -2% and the “% inhibition of binding” value [27] was 2%. The “% inhibition of binding” value [28] was 2%, the “% inhibition of binding” value [29] was 93% and the “% inhibition of binding” value [30] was 4%. The “EC resulting in A450 0.2” value [31] was 3.5 ng/mL, the “maximal absorbance at 450 nm” value [31] was 0.669 and the “EC resulting in A450 0.4” value [32] was 1.7 ng/mL. The “maximal absorbance at 450 nm” value [32] was 1.29.

B7: SVG13L (VHH)
VHH: QVQLQESGGGLVQPGGSLRLSCEASGFTFDDYGMSWVRQAPGKGLEWVSSLTPNGGSTYYADSVKGRFTISRDNAKNTLYLQMNSLKPEDTALYYCAKNSYYGAMDYWGKGTLVTVSS
For B7, the “Effective SDA Concentration at A450 0.3” value [2] was > 1000 ng/mL, the “Effective SDA Concentration at A450 0.56” value [3] was > 1000 ng/mL and the “minimal absorbance value (GT1b-TeNT inhibition)” value [4] was 0.72 A450. The maximal absorbance value [10] was 0.16 A450, the maximal absorbance value [5] was 0.08 A450 and the maximal absorbance value [6] was 0.17 A450. For the same binder, the maximal absorbance value [7] was 0.09 A450, the “Effective SDA Concentration at A450 0.15” value [8] was > 1000 ng/mL and the binding result [8] was “no binding (tested: 1000 ng/ml (A450 0.15 not reached))”. The “Effective SDA Concentration at A450 0.15” value [9] was > 1000 ng/mL.
